Reference: patent US5871995

Columns and labels:
[1] = molecular target: phenylalanyl-glycyl-phenylalanyl-glycine
[2] = molecular target: phenylalanyl-glycyl-phenylalanyl-hydroxylglycine

| Substance | Enzyme activity n mole/h/ml medium, PheGlyPheGly to PheGlyPhehydroxyGly (n mole/h/ml medium) [1] | Enzyme activity n mole/h/ml medium, PheGlyPhehydroxyGly to PheGlyPhe-NH2 + glyoxylic acid (n mole/h/ml medium) [2] |
| --- | --- | --- |
| Enzyme expressed from plasmid SV-203 (Signal sequence + N-terminal domain + C-terminal domain) in COS-7 cells (from UniProt P14925) | 2.5 | 4.2 |
| Enzyme expressed from plasmid SV-a (Signal sequence + N-terminal domain) in COS-7 cells (from UniProt P14925) | 2.8 | < 2 |
| Enzyme expressed from plasmid SV-b (Signal sequence + C-terminal domain) in COS-7 cells (from UniProt P14925) | 0.4 | 10.8 |
